{"source": "patent US20100093076A1", "about": "“SOLUBLE IL-27 RECEPTOR” (priority 2006, published 2010)", "molecules": {"B1": {"name": "IL-27RAm(mFc1): Extracellular domain of mouse IL27RA fused to a wild type BALB/c mouse gamma2a constant region Fc tag (protein)", "chain": "MNRLERVALARLETPRLEGLLELELESLEMSLELELEGTRPRHGSPRGPRLEQCYSVGPRLEGILENCSWGLPRLEGDLEGLTPRPRVLEYHQSQKYHPRNRVWGLVKVPRSKQSWVTIPRRGLQFTMADKLELEIWGTQKGRPRLEWSSVSVASNLEGLTQMKPRDTPRQIFSQVASPISGLGLATLEGLATVQWAPRPRVWPRPRQKALETCQFRYKGLCQAGLAWTRLEGLPRQLEKTDGLETPRVGLMQNLEGLPRGTCYQVSGRCQVGLNGYPRWGGLWSSPRLESFQTPRFLEDPRGLDVWVSGTVCGLTSGKRAALELEVWKDPRRPRCVQVTYTVWFGAGDITTTQGLGLVPRCCKSPRVPRAWMGLWAVVSPRGNSTSWVPRPRTNLESLEVCLEAPRGLSAPRCDVGVSSADGSPRGIKVTWKQGTARGSPRLEGLYVVASPWAQDGDSLEDKLENWTRLEPRPRGNLESTLELEPRGGLFKGGVPRYRITVTAVYSGGLEAAAPRSVWGFRGLGLLEVPRLEAGPRAVWRLEPRDDPRPRGTPRVVALAWGGLVPRRHQLERGQATHYTFCIQSRGLESTVCRNVSSQTQTATLEPRNLEHSGSFKLEWVTVSTVALAGQGPRPRGPRDLESLEHLEPRDNRIRWKALEPRWFLESLEWGLELELEMGCGLESLEASTRCLEQARCLEHWRHKLELEPRQWIWGLRVPRDPRANSNSGQPRYIKGLVSLEPRQPRPRKDGPRILEGLVGLGLVGLLEQPRVVGLSPRKASAPRIYSGYGLKHFLEPRTPRGLGLLEGLELEV", "modifications": "left off: a dimerising Fc or GST", "notes": "Extracellular domain of mouse IL27RA fused to a wild type BALB/c mouse gamma2a constant region Fc tag"}}, "type_in_all_cases": "cell-based", "key": {"muIL-27 [1]": {"biological_target": "T1, muIL-27 (Mus musculus, UniProt O35228+Q8K3I6)", "T1 construct": "purchased R&D Systems", "T1 sequence (Q8K3I6 29-234)": "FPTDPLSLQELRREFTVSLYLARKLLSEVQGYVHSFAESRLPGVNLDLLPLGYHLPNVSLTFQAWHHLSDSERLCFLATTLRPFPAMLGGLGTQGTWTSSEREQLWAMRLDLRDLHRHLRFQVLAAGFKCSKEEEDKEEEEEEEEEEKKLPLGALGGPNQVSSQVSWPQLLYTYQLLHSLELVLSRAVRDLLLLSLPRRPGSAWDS", "T1 sequence (O35228 19-228)": "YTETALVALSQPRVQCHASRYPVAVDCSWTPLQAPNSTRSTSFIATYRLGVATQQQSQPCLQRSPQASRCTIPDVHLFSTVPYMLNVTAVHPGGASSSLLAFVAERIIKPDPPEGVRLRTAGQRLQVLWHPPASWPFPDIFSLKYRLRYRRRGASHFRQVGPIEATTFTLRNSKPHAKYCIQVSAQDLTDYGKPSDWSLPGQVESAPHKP", "experiment": "Phospho-STAT3 (BIO-PLEX) neutralization of IL-27 by soluble receptors, mouse spleens", "settings": "ligand muIL-27 at EC90 (0.2 nM)", "excerpt": "(§1) Whole mouse spleens were harvested from C57 B1/6 mice and washed two times with 1×PBS before being plated out at 2×10^5 cells/well in assay media (RPMI 1640 plus 10% fetal bovine serum) in 96-well, round-bottom tissue culture plates. Total human PBMC (peripheral blood mononuclear cells) were thawed from a frozen vial collected from a leukapherisis donation and washed two times with 1×PBS before being plated out at 10^6 cells/well in assay media in 96-well, round-bottom tissue culture plates. […] Following pre-incubation, treatments were added to the plates containing the cells and incubated together at 37° C. for 15 minutes.\n(§2) Following incubation, cells were washed with ice-cold wash buffer (BIO-PLEX Cell Lysis Kit, BIO-RAD Laboratories, Hercules, Calif.) and put on ice to stop the reaction according to manufacturer's instructions. […]\n(§3) Capture beads (BIO-PLEX Phospho-Stat3 Assay, BIO-RAD Laboratories) were combined with 50 μL of 1:1 diluted lysates and added to a 96-well filter plate according to manufacture's instructions (BIO-PLEX Phosphoprotein Detection Kit, BIO-RAD Laboratories). […] After the final wash, beads were resuspended in 125 μL/well of bead suspension buffer, shaken for 30 seconds, and read on an array reader (BIO-PLEX, BIO-RAD Laboratories) according to the manufacture's instructions. Data were analyzed using analytical software (BIO-PLEX MANAGER 3.0, BIO-RAD Laboratories). […]"}, "muIL-27 [2]": {"biological_target": "T1, muIL-27", "experiment": "Phospho-STAT3 (BIO-PLEX) neutralization of IL-27 by soluble receptors, total human PBMCs", "settings": "ligand muIL-27 at EC90 (2 nM)", "excerpt": "as §1, §2, §3"}, "huIL-27": {"biological_target": "T2, huIL-27 (Homo sapiens, UniProt Q14213+Q8NEV9)", "T2 construct": "purchased R&D Systems", "T2 sequence (Q8NEV9 29-243)": "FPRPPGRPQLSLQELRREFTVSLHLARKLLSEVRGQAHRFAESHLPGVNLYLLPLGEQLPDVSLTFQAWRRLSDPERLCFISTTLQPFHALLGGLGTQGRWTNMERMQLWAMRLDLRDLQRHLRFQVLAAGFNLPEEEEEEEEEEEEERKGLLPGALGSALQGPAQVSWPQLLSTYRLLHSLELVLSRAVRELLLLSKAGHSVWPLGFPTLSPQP", "T2 sequence (Q14213 21-229)": "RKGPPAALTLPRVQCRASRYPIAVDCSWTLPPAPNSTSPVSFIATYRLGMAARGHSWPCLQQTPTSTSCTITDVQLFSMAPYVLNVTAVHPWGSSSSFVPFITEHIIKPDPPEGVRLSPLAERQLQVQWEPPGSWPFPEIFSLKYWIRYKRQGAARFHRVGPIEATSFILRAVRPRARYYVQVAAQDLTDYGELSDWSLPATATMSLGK", "experiment": "Phospho-STAT3 (BIO-PLEX) neutralization of IL-27 by soluble receptors, total human PBMCs", "settings": "ligand huIL-27 at EC90 (2 nM)", "excerpt": "as §1, §2, §3"}}, "data": [{"molecule": "B1", "values": [{"measurement": "IC50", "setting": "muIL-27 [1]", "result": 0.18, "unit": "nM"}, {"measurement": "IC50", "setting": "muIL-27 [2]", "result": 4.83, "unit": "nM"}, {"measurement": "IC50", "setting": "huIL-27", "result": 1370, "unit": "nM"}]}]}
